The values that follow come from patent publication US20220017622A1 (Pfizer, published 2022).

Numbering of substitutions follows the chain as printed.

B1: B7-H4xCD3 bispecific antibody 0998 (bispecific antibody, IgG2)
heavy 1: EVQLLESGGGLVQPGGSLRLSCAASGFTFSSYAMSWVRQAPGKGLEWVSAISGGGGSTQYADSVKGRFTISRDNSKNTLYLQMNSLRAEDTAVYYCARDIQWFGESTLFDYWGQGTLVTVSSASTKGPSVFPLAPCSRSTSESTAALGCLVKDYFPEPVTVSWNSGALTSGVHTFPAVLQSSGLYSLSSVVTVPSSNFGTQTYTCNVDHKPSNTKVDKTVERKCEVECPECPAPPVAGPSVFLFPPKPKDTLMISRTPEVTCVVVAVSHEDPEVQFNWYVDGVEVHNAKTKPREEQFNSTFRVVSVLTVVHQDWLNGKEYKCKVSNKGLPSSIEKTISKTKGQPREPQVYTLPPSREEMTKNQVSLTCEVKGFYPSDIAVEWESNGQPENNYKTTPPMLDSDGSFFLYSKLTVDKSRWQQGNVFSCSVMHEALHNHYTQKSLSLSPG
light 1: DIQLTQSPSTLSASVGDRVTITCRASQSIRSWLAWFQQKPGKAPKLLIYKASSLEGGVPSRFSGSGSGTEFTLTISSLQPDDFATYYCQQYNSYSRTFGQGTKVEIKRTVAAPSVFIFPPSDEQLKSGTASVVCLLNNFYPREAKVQWKVDNALQSGNSQESVTEQDSKDSTYSLSSTLTLSKADYEKHKVYACEVTHQGLSSPVTKSFNRGEC
heavy 2: EVQLVESGGGLVQPGGSLRLSCAASGFTFSDYYMTWVRQAPGKGLEWVAFIRNQARGYTSDHNPSVKGRFTISRDNAKNSLYLQMNSLRAEDTAVYYCARDRPSYYVLDYWGQGTTVTVSSASTKGPSVFPLAPCSRSTSESTAALGCLVKDYFPEPVTVSWNSGALTSGVHTFPAVLQSSGLYSLSSVVTVPSSNFGTQTYTCNVDHKPSNTKVDKTVERKCRVRCPRCPAPPVAGPSVFLFPPKPKDTLMISRTPEVTCVVVAVSHEDPEVQFNWYVDGVEVHNAKTKPREEQFNSTFRVVSVLTVVHQDWLNGKEYKCKVSNKGLPSSIEKTISKTKGQPREPQVYTLPPSREEMTKNQVSLTCLVKGFYPSDIAVEWESNGQPENNYKTTPPMLDSDGSFFLYSRLTVDKSRWQQGNVFSCSVMHEALHNHYTQKSLSLSPGK
light 2: DIQMTQSPSSLSASVGDRVTITCTSSQSLFNVRSQKNYLAWYQQKPGKAPKLLIYWASTRESGVPSRFSGSGSGTDFTLTISSLQPEDFATYYCKQSYDLFTFGGGTKVEIKRTVAAPSVFIFPPSDEQLKSGTASVVCLLNNFYPREAKVQWKVDNALQSGNSQESVTEQDSKDSTYSLSSTLTLSKADYEKHKVYACEVTHQGLSSPVTKSFNRGEC
B2: B7-H4xCD3 bispecific antibody 0090 (bispecific antibody, human IgG1, kappa)
heavy 1: QVQLQQWGAGLLKPSETLSLTCAVYGGSFSGYYWNWIRQPPGKGLEWIGEINHSGSTKYNPSLKSRVTISGDTSKNQFSLKLNSVTAADTAVYYCVRGLYNWNVDSWGQGTLVTVSSASTKGPSVFPLAPSSKSTSGGTAALGCLVKDYFPEPVTVSWNSGALTSGVHTFPAVLQSSGLYSLSSVVTVPSSSLGTQTYICNVNHKPSNTKVDKKVEPKSCDKTHTCPPCPAPEAAGAPSVFLFPPKPKDTLMISRTPEVTCVVVDVSHEDPEVKFNWYVDGVEVHNAKTKPREEQYNSTYRVVSVLTVLHQDWLNGKEYKCKVSNKALPAPIEKTISKAKGQPREPQVYTLPPSREEMTKNQVSLTCEVKGFYPSDIAVEWESNGQPENNYKTTPPVLDSDGSFFLYSKLTVDKSRWQQGNVFSCSVMHEALHNHYTQKSLSLSPG
light 1: DIQMTQSPSSLSASVGDRVTITCRASQGIRNDLGWYQQKPGKAPKRLIYVASSLQSGVPSRFSGSGSGTEFTLTISSLQPEDFATYYCLQHNSYPYTFGQGTKLEIKRTVAAPSVFIFPPSDEQLKSGTASVVCLLNNFYPREAKVQWKVDNALQSGNSQESVTEQDSKDSTYSLSSTLTLSKADYEKHKVYACEVTHQGLSSPVTKSFNRGEC
heavy 2: EVQLVESGGGLVQPGGSLRLSCAASGFTFSDYYMTWVRQAPGKGLEWVAFIRNQARGYTSDHNPSVKGRFTISRDNAKNSLYLQMNSLRAEDTAVYYCARDRPSYYVLDYWGQGTTVTVSSASTKGPSVFPLAPSSKSTSGGTAALGCLVKDYFPEPVTVSWNSGALTSGVHTFPAVLQSSGLYSLSSVVTVPSSSLGTQTYICNVNHKPSNTKVDKKVEPKSCDKTHTCPPCPAPEAAGAPSVFLFPPKPKDTLMISRTPEVTCVVVDVSHEDPEVKFNWYVDGVEVHNAKTKPREEQYNSTYRVVSVLTVLHQDWLNGKEYKCKVSNKALPAPIEKTISKAKGQPREPQVYTLPPSREEMTKNQVSLTCLVKGFYPSDIAVEWESNGQPENNYKTTPPVLDSDGSFFLYSRLTVDKSRWQQGNVFSCSVMHEALHNHYTQKSLSLSPG
light 2: B1 light 2
B3: B7-H4xCD3 bispecific antibody 1000 (bispecific antibody, IgG2)
heavy 1: B1 heavy 1 with Q59Y, F103H
light 1: B1 light 1
heavy 2: B1 heavy 2
light 2: B1 light 2
B4: B7-H4xCD3 bispecific antibody 1003 (bispecific antibody, IgG2)
heavy 1: B1 heavy 1 with Q59Y
light 1: B1 light 1 with L4M, T10S, I29T, W32H, F36Y, E70D, D81E, N92G
heavy 2: B1 heavy 2
light 2: B1 light 2
B5: B7-H4xCD3 bispecific antibody 0978 (bispecific antibody, IgG2)
heavy 1: EVQLVESGGGLVQPGGSLRLSCAASGGSFSGYYWNWIRQPPGKGLEWIGEIDHQGSTKYNPSLKSRVTISVDTAKNSLYLQMNSLRAEDTAVYYCARELYNWNVDHWGQGTLVTVSSASTKGPSVFPLAPCSRSTSESTAALGCLVKDYFPEPVTVSWNSGALTSGVHTFPAVLQSSGLYSLSSVVTVPSSNFGTQTYTCNVDHKPSNTKVDKTVERKCEVECPECPAPPVAGPSVFLFPPKPKDTLMISRTPEVTCVVVAVSHEDPEVQFNWYVDGVEVHNAKTKPREEQFNSTFRVVSVLTVVHQDWLNGKEYKCKVSNKGLPSSIEKTISKTKGQPREPQVYTLPPSREEMTKNQVSLTCEVKGFYPSDIAVEWESNGQPENNYKTTPPMLDSDGSFFLYSKLTVDKSRWQQGNVFSCSVMHEALHNHYTQKSLSLSPG
light 1: B2 light 1 with V50A, E70D, N92S, Y96R, Q100G, L104V
heavy 2: B1 heavy 2
light 2: B1 light 2
B6: B7-H4xCD3 bispecific antibody 1130 (bispecific antibody, IgG2)
heavy 1: B5 heavy 1 with D52N, Q54S, T57A, K58T, E98G
light 1: B2 light 1 with V50A, E70D, S93A, Y96R, Q100G, L104V
heavy 2: B1 heavy 2
light 2: B1 light 2
B7: B7-H4xCD3 bispecific antibody 1001 (bispecific antibody, IgG2)
heavy 1: B1 heavy 1 with Q59Y, E105R
light 1: B1 light 1
heavy 2: B1 heavy 2
light 2: B1 light 2
B8: B7-H4xCD3 bispecific antibody 0976 (bispecific antibody, IgG2)
heavy 1: B5 heavy 1 with A24V
light 1: B2 light 1 with V50A, E70D, S93A, Y96R, Q100G, L104V
heavy 2: B1 heavy 2
light 2: B1 light 2
B9: B7-H4xCD3 bispecific antibody 0974 (bispecific antibody, IgG2)
heavy 1: B5 heavy 1 with E98G
light 1: B2 light 1 with V50A, E70D, S93A, Y96R, Q100G, L104V
heavy 2: B1 heavy 2
light 2: B1 light 2
B10: B7-H4xCD3 bispecific antibody 1166 (bispecific antibody, IgG2)
heavy 1: B1 heavy 1 with Q59Y, F103Y
light 1: B1 light 1 with L4M, T10S, I29T, F36Y, E70D, D81E, N92G
heavy 2: B1 heavy 2
light 2: B1 light 2
B11: B7-H4xCD3 bispecific antibody 1135 (bispecific antibody, IgG2)
heavy 1: B5 heavy 1 with I37V, P40A, D52N, Q54S, T57A, K58T, E98G
light 1: B2 light 1 with V50A, E70D, S93A, Y96R, Q100G, L104V
heavy 2: B1 heavy 2
light 2: B1 light 2
For T cell mediated tumor cell killing, OVCAR3-Luc in this document: unit not given here.

The target in this experiment is T1, human B7-H4 on cells (human, UniProt Q7Z7D3 25-282).
T1 sequence (looked up): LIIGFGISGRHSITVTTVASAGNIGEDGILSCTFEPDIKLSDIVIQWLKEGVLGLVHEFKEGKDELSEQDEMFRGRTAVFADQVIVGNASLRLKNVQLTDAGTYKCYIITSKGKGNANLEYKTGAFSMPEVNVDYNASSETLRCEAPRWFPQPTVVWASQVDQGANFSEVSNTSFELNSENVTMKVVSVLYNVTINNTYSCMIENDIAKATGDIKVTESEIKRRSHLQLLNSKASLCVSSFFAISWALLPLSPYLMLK
The experiment in a line: cell-based or functional assay.
For B1, the “T cell mediated tumor cell killing EC50, HCC1954-Luc” value was determined as 410 nM. Still for that read-out and setting: the figure for B2 is 68 nM. Consider B3, for which the “T cell mediated tumor cell killing EC50, HCC1954-Luc” value worked out at 100 nM. B4: the “T cell mediated tumor cell killing EC50, HCC1954-Luc” value was 100 nM. On the same count and under the same terms, for B5 the value was 320 nM. As for B6, the “T cell mediated tumor cell killing EC50, HCC1954-Luc” value was found to be 73700 nM and the “T cell mediated tumor cell killing, OVCAR3-Luc” value is 810. Regarding B7, the “T cell mediated tumor cell killing EC50, HCC1954-Luc” value stood at 10 nM.

Regarding B8, the “T cell mediated tumor cell killing EC50, HCC1954-Luc” value was 2170 nM. Same read-out and setting: for B9 the value was 764 nM. Turning to B10, the “T cell mediated tumor cell killing EC50, HCC1954-Luc” value was 15500 nM and the “T cell mediated tumor cell killing, OVCAR3-Luc” value stood at 800.

Consider B11, for which the “T cell mediated tumor cell killing EC50, HCC1954-Luc” value stood at 1200 nM and the “T cell mediated tumor cell killing, OVCAR3-Luc” value stood at 420.
